Assay results as given in patent US20020009436A1, “Methods and compositions for inhibiting adhesion by microorganisms” (priority 1999, published 2002).

Tests used:
[1] = system: A. naeslundii ATCC 12104 (adhesin) / Capnocytophaga ochracea (receptor); assay: Coaggregation A. naeslundii ATCC 12104 / Capnocytophaga ochracea; conditions: A. naeslundii ATCC 12104 (adhesin) enzyme treated; polyphenol oxidase 90 U/ml, asparaginase 20 U/ml
Method: (§2) S. sanguis 10556, A. naeslundii strains 12104 and T14V and E. coli were grown static cultures in Todd-Hewitt broth (BBL Microbiology Systems, Cockeysville, Md.). P. gingivalis W50, A. actinomycetemcomitans and C. ochracea were grown in brain heart infusion broth (BBL). F. nucleatum 22586 and P. intermedia 25611 were grown in modified Schaedler broth (BBL). All oral species except S. sanguis 10556 were incubated at 37° C. as static cultures under an anaerobic atmosphere containing H2, CO2 and N2(10:10:80) with GasPaks (BBL). S. sanguis was incubated at 37° C. as static cultures in 5% CO2.
(§3) Bacteria were harvested in the mid to late exponential growth phase by centrifugation (10,000×g for 10 min at 4° C.). The cells were washed twice in coaggregation buffer (30 mM 3-[N-morpholino]propanesulfonic acid (MOPS), pH 7.0) and adjusted to an optical density of 0.6-0.8 at 540 nm (1-cm path). […]
(§4) Coaggregation was assessed by turbidity changes. Following mixing of the cells for 10 s on a Vortex mixer, absorbance readings were made every 30 min. The percentage of coaggregation was calculated from the following formula: Percent coaggregation=[OD540(A)+OD540(B)−OD540(A+B)]/(OD540(A)+OD540(B)), where A is the control containing cells of one strain, B is the control containing cells of the other strain, and A+B is the reaction mixture containing both cells. […]

Influenza A strain H1N1 = assay: Hemagglutination of chicken erythrocytes by influenza virus; format: cell-based; conditions: polyphenol oxidase 70 U/ml or asparaginase 10 U/ml; untreated 256
S. pyogenes = assay: Collagen binding assay, S. pyogenes; format: cell-based
Method: (§1) Wells were filled with 1 mg/ml soluble collagen overnight at 4° C. Control wells were coated with 1% BSA. The protein solutions were removed and permitted to stand at 37° C. for 1 h. A solution of 2% BSA was added to the wells to block unoccupied sites and prevent non-specific binding of bacteria. After 30 min, BSA was removed and the wells were washed once with distilled water. Finally, the bacterial suspensions (100 μl, OD 1.4) were added to the plates and incubated at 37° C. for 2 h. Unbound bacteria were removed by washing the wells three times with PBS containing 0.01% Tween 20. The wells were dried at 37° C. for 30 min and stained with crystal violet for 15 min. Wells were rinsed with distilled water and dried at 37° C. for 2 h. After adding 100 μl of 95% (v/v) ethanol to each well the plates were then shaken to release the stain and a reading of 550 nm was carried out.

[2] = system: F. nucleatum (adhesin) / A. actinomycetemcomitans (receptor); assay: Coaggregation F. nucleatum / A. actinomycetemcomitans; conditions: polyphenol oxidase 90 U/ml, asparaginase 20 U/ml
Method: as §2, §3, §4

[3] = system: S. epidermidis (clinical isolate); assay: Collagen binding assay, S. epidermidis; format: cell-based; conditions: untreated 0.09
Method: as §1

Candida albicans = assay: Adhesion of Candida albicans to buccal cells; format: cell-based; conditions: 37° C. 60 min, ave ±SE, 5 runs
[4] = system: endogenous bacteria attached to UECs; assay: Removal of endogenous biota from sloughed urinary epithelial cells; format: cell-based; conditions: for Percent UECs with ≧30 Bacteria Attached: PBS 30
Method: Sloughed epithelial cells were incubated with the enzymes, collected by filtration, transferred to microscope slides and stained with crystal violet. Then 50 epithelial cells from each slide were randomly assessed for the numbers of bacteria associated with them and placed into one of four categories: Cells with 0-9, 10-29, 30-49, or >50 bacteria associated with them.

[5] = system: P. gingivalis W50 (adhesin) / A. naeslundii T14V (receptor); assay: Coaggregation P. gingivalis W50 / A. naeslundii T14V; conditions: P. gingivalis W50 (adhesin) enzyme treated; polyphenol oxidase 90 U/ml, asparaginase 20 U/ml
Method: as §2, §3, §4

B1: asparaginase: enzyme that catalyzes hydrolysis of the side chain amide group of asparagine to a carboxyl group; E. coli asparaginase (protein, UniProt P00805 23-348, looked up)
L-asparaginase 2: LPNITILATGGTIAGGGDSATKSNYTVGKVGVENLVNAVPQLKDIANVKGEQVVNIGSQDMNDNVWLTLAKKINTDCDKTDGFVITHGTDTMEETAYFLDLTVKCDKPVVMVGAMRPSTSMSADGPFNLYNAVVTAADKASANRGVLVVMNDTVLDGRDVTKTNTTDVATFKSVNYGPLGYIHNGKIDYQRTPARKHTSDTPFDVSKLNELPKVGIVYNYANASDLPAKALVDAGYDGIVSAGVGNGNLYKSVFDTLATAAKTGTAVVRSSRVPTGATTQDAEVDDAKYGFVASGTLNPQKARVLLQLALTQTKDPQQIQQIFNQY
[1]
  Inhibition % of coaggregation: 25%
Influenza A strain H1N1
  Hemagglutination Titers, Dilution of Virus + RBCs (fold): 64 fold
S. pyogenes; S. pyogenes M4, untreated 0.19
  Absorbance (collagen): 0.10
S. pyogenes; S. pyogenes M24, untreated 0.31
  Absorbance (collagen): 0.13
[2]; A. actinomycetemcomitans (receptor) enzyme treated
  Inhibition % of coaggregation: 40%
[2]; F. nucleatum (adhesin) enzyme treated
  Inhibition % of coaggregation: 23%
[3]
  Absorbance (collagen): 0.05
Candida albicans; cells, 20 U/ml, control 9.0 ± 3.5
  Candida/buccal cell: 7.0 ± 2
Candida albicans; cells, 60 U/ml, control 9.0 ± 3.5
  Candida/buccal cell: 4.5 ± 1.5
Candida albicans; hyphae, 20 U/ml, control 5.1 ± 3.1
  Candida/buccal cell: 3.1 ± 2.0
Candida albicans; hyphae, 60 U/ml, control 5.1 ± 3.1
  Candida/buccal cell: 1.3 ± 1.2
[4]
  numbers of UECs with large numbers of endogenous bacteria: little or no effect
[4]; asparaginase 5 U/ml, 30 minute incubation
  Percent UECs with ≧30 Bacteria Attached: 28%
[4]; asparaginase 10 U/ml, 30 minute incubation
  Percent UECs with ≧30 Bacteria Attached: 26%
[4]; polyphenol oxidase 70 or 140 U/ml, asparaginase 5 or 10 U/ml, 30 minute incubation
  effects on the numbers of endogenous bacteria attached to UECs: relatively minor effects
[5]
  Inhibition % of coaggregation: i 31%
